Here are results for 16 molecules from patent US20160272683A1 (Novo Nordisk, published 2016).

Numbered stars: 1 amine (or outer) side, 2 acyl side, 3 side chain; on linkers, the order of the positions; unused ones are H or OH. Ends that are not written are not given here. * marks the point of attachment. C20 diacid = O=C(O)CCCCCCCCCCCCCCCCCCC(=O)*; C18 diacid = O=C(O)CCCCCCCCCCCCCCCCC(=O)*; γGlu = O=C(O)[C@H](CCC(=O)[*:2])N[*:1]

T1: human amylin receptor (human calcitonin receptor + human RAMP3) (human) (UniProt P30988)
T1 sequence (looked up) 1: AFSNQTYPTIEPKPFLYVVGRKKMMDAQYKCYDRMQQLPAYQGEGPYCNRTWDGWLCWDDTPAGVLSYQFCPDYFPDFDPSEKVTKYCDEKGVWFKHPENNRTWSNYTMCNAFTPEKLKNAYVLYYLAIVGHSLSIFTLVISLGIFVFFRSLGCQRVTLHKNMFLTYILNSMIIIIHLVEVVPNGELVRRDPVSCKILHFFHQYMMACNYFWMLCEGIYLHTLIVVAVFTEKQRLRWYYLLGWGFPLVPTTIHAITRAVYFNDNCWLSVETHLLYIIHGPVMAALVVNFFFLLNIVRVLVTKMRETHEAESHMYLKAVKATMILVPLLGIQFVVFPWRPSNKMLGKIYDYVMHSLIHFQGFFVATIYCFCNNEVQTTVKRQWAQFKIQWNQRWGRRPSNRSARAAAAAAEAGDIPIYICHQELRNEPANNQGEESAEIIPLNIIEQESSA
T1 sequence (looked up) 2: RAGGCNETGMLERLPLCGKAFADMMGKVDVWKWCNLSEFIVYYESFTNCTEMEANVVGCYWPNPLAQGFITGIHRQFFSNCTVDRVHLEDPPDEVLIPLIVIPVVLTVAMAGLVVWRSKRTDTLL

T2: human calcitonin receptor (human, UniProt P30988 25-474)
T2 construct: whole, on cells; also called hCT-R; hCTR
T2 sequence (looked up): T1 sequence (looked up) 1

B1: [N-terminal(C20 diacid-gGlu), des1, 2L, 4Q, 8L, 9V, 15Q, 16R, 19R, 21Q, 23Y, 27Q, 30S, 31Q, 32T, 33Y]mimylin (peptide)
peptide: {C20 diacid-γGlu}-LSQLSTLVLGRLSQRLHRLQTYPRTQTGSQTY-NH2
SMILES: CC(C)C[C@H](NC(=O)CC[C@H](NC(=O)CCCCCCCCCCCCCCCCCCC(=O)O)C(=O)O)C(=O)N[C@@H](CO)C(=O)N[C@@H](CCC(N)=O)C(=O)N[C@@H](CC(C)C)C(=O)N[C@@H](CO)C(=O)N[C@H](C(=O)N[C@@H](CC(C)C)C(=O)N[C@H](C(=O)N[C@@H](CC(C)C)C(=O)NCC(=O)N[C@@H](CCCNC(=N)N)C(=O)N[C@@H](CC(C)C)C(=O)N[C@@H](CO)C(=O)N[C@@H](CCC(N)=O)C(=O)N[C@@H](CCCNC(=N)N)C(=O)N[C@@H](CC(C)C)C(=O)N[C@@H](Cc1c[nH]cn1)C(=O)N[C@@H](CCCNC(=N)N)C(=O)N[C@@H](CC(C)C)C(=O)N[C@@H](CCC(N)=O)C(=O)N[C@H](C(=O)N[C@@H](Cc1ccc(O)cc1)C(=O)N1CCC[C@H]1C(=O)N[C@@H](CCCNC(=N)N)C(=O)N[C@H](C(=O)N[C@@H](CCC(N)=O)C(=O)N[C@H](C(=O)NCC(=O)N[C@@H](CO)C(=O)N[C@@H](CCC(N)=O)C(=O)N[C@H](C(=O)N[C@@H](Cc1ccc(O)cc1)C(N)=O)[C@@H](C)O)[C@@H](C)O)[C@@H](C)O)[C@@H](C)O)C(C)C)[C@@H](C)O
B2: [N-terminal(C20 diacid-gGlu), des1, 4G, 9V, 15Q, 21Q, 23Y, 30S, 31A, 32T, 33Y]mimylin (peptide)
peptide: {C20 diacid-γGlu}-ASGLSTAVLGRLSQELHELQTYPRTETGSATY-NH2
SMILES: CC(C)C[C@H](NC(=O)CNC(=O)[C@H](CO)NC(=O)[C@H](C)NC(=O)CC[C@H](NC(=O)CCCCCCCCCCCCCCCCCCC(=O)O)C(=O)O)C(=O)N[C@@H](CO)C(=O)N[C@H](C(=O)N[C@@H](C)C(=O)N[C@H](C(=O)N[C@@H](CC(C)C)C(=O)NCC(=O)N[C@@H](CCCNC(=N)N)C(=O)N[C@@H](CC(C)C)C(=O)N[C@@H](CO)C(=O)N[C@@H](CCC(N)=O)C(=O)N[C@@H](CCC(=O)O)C(=O)N[C@@H](CC(C)C)C(=O)N[C@@H](Cc1c[nH]cn1)C(=O)N[C@@H](CCC(=O)O)C(=O)N[C@@H](CC(C)C)C(=O)N[C@@H](CCC(N)=O)C(=O)N[C@H](C(=O)N[C@@H](Cc1ccc(O)cc1)C(=O)N1CCC[C@H]1C(=O)N[C@@H](CCCNC(=N)N)C(=O)N[C@H](C(=O)N[C@@H](CCC(=O)O)C(=O)N[C@H](C(=O)NCC(=O)N[C@@H](CO)C(=O)N[C@@H](C)C(=O)N[C@H](C(=O)N[C@@H](Cc1ccc(O)cc1)C(N)=O)[C@@H](C)O)[C@@H](C)O)[C@@H](C)O)[C@@H](C)O)C(C)C)[C@@H](C)O
B3: [N-terminal(C20 diacid-gGlu), 2L, 4G, 8L, 9V, 15Q, 21Q, 23Y, 27G, 30S, 31G, 32T, 33Y]mimylin (peptide)
peptide: {C20 diacid-γGlu}-ELSGLSTLVLGRLSQELHELQTYPRTGTGSGTY-NH2
SMILES: CC(C)C[C@H](NC(=O)CNC(=O)[C@H](CO)NC(=O)[C@H](CC(C)C)NC(=O)[C@H](CCC(=O)O)NC(=O)CC[C@H](NC(=O)CCCCCCCCCCCCCCCCCCC(=O)O)C(=O)O)C(=O)N[C@@H](CO)C(=O)N[C@H](C(=O)N[C@@H](CC(C)C)C(=O)N[C@H](C(=O)N[C@@H](CC(C)C)C(=O)NCC(=O)N[C@@H](CCCNC(=N)N)C(=O)N[C@@H](CC(C)C)C(=O)N[C@@H](CO)C(=O)N[C@@H](CCC(N)=O)C(=O)N[C@@H](CCC(=O)O)C(=O)N[C@@H](CC(C)C)C(=O)N[C@@H](Cc1c[nH]cn1)C(=O)N[C@@H](CCC(=O)O)C(=O)N[C@@H](CC(C)C)C(=O)N[C@@H](CCC(N)=O)C(=O)N[C@H](C(=O)N[C@@H](Cc1ccc(O)cc1)C(=O)N1CCC[C@H]1C(=O)N[C@@H](CCCNC(=N)N)C(=O)N[C@H](C(=O)NCC(=O)N[C@H](C(=O)NCC(=O)N[C@@H](CO)C(=O)NCC(=O)N[C@H](C(=O)N[C@@H](Cc1ccc(O)cc1)C(N)=O)[C@@H](C)O)[C@@H](C)O)[C@@H](C)O)[C@@H](C)O)C(C)C)[C@@H](C)O
B4: [N-terminal(C20 diacid-gGlu), des1, 2L, 4G, 9V, 21S, 23Y, 30S, 31G, 32T, 33Y]mimylin (peptide)
peptide: {C20 diacid-γGlu}-LSGLSTAVLGRLSAELHELSTYPRTETGSGTY-NH2
SMILES: CC(C)C[C@H](NC(=O)CC[C@H](NC(=O)CCCCCCCCCCCCCCCCCCC(=O)O)C(=O)O)C(=O)N[C@@H](CO)C(=O)NCC(=O)N[C@@H](CC(C)C)C(=O)N[C@@H](CO)C(=O)N[C@H](C(=O)N[C@@H](C)C(=O)N[C@H](C(=O)N[C@@H](CC(C)C)C(=O)NCC(=O)N[C@@H](CCCNC(=N)N)C(=O)N[C@@H](CC(C)C)C(=O)N[C@@H](CO)C(=O)N[C@@H](C)C(=O)N[C@@H](CCC(=O)O)C(=O)N[C@@H](CC(C)C)C(=O)N[C@@H](Cc1c[nH]cn1)C(=O)N[C@@H](CCC(=O)O)C(=O)N[C@@H](CC(C)C)C(=O)N[C@@H](CO)C(=O)N[C@H](C(=O)N[C@@H](Cc1ccc(O)cc1)C(=O)N1CCC[C@H]1C(=O)N[C@@H](CCCNC(=N)N)C(=O)N[C@H](C(=O)N[C@@H](CCC(=O)O)C(=O)N[C@H](C(=O)NCC(=O)N[C@@H](CO)C(=O)NCC(=O)N[C@H](C(=O)N[C@@H](Cc1ccc(O)cc1)C(N)=O)[C@@H](C)O)[C@@H](C)O)[C@@H](C)O)[C@@H](C)O)C(C)C)[C@@H](C)O
B5: [30S, 31G]mimylin (peptide)
peptide: EASELSTAALGRLSAELHELATLPRTETGSGSP-NH2
notes: backbone without side chain; also called Ex. #22bb; 22bb
B6: [N-terminal(C18 diacid), 2P, 9V]mimylin (peptide)
peptide: {C18 diacid}-EPSELSTAVLGRLSAELHELATLPRTETGPESP-NH2
SMILES: CC(C)C[C@H](NC(=O)[C@H](CCC(=O)O)NC(=O)[C@H](Cc1c[nH]cn1)NC(=O)[C@H](CC(C)C)NC(=O)[C@H](CCC(=O)O)NC(=O)[C@H](C)NC(=O)[C@H](CO)NC(=O)[C@H](CC(C)C)NC(=O)[C@H](CCCNC(=N)N)NC(=O)CNC(=O)[C@H](CC(C)C)NC(=O)[C@@H](NC(=O)[C@H](C)NC(=O)[C@@H](NC(=O)[C@H](CO)NC(=O)[C@H](CC(C)C)NC(=O)[C@H](CCC(=O)O)NC(=O)[C@H](CO)NC(=O)[C@@H]1CCCN1C(=O)[C@H](CCC(=O)O)NC(=O)CCCCCCCCCCCCCCCCC(=O)O)[C@@H](C)O)C(C)C)C(=O)N[C@@H](C)C(=O)N[C@H](C(=O)N[C@@H](CC(C)C)C(=O)N1CCC[C@H]1C(=O)N[C@@H](CCCNC(=N)N)C(=O)N[C@H](C(=O)N[C@@H](CCC(=O)O)C(=O)N[C@H](C(=O)NCC(=O)N1CCC[C@H]1C(=O)N[C@@H](CCC(=O)O)C(=O)N[C@@H](CO)C(=O)N1CCC[C@H]1C(N)=O)[C@@H](C)O)[C@@H](C)O)[C@@H](C)O
notes: also called Ex. #28

The first test concerns the target T1, human amylin receptor (human calcitonin receptor + human RAMP3) (human). The test can be described thus: whole-cell competition vs 125I-rat amylin (Assay Va).
For orientation: IC50 means the concentration needed to halve the response being measured. Take B1: the IC50 came out at 10.7 nM.

With LSGLSTAVLGRLSQELHELQTYPRTETGSQTY-NH2 [[des1, 2L, 4G, 9V, 15Q, 21Q, 23Y, 30S, 31Q, 32T, 33Y]mimylin], the IC50 turned out to be 1.18 nM.

Take B2: the half-maximal inhibitory concentration (IC50) is 0.244 nM.

Take B3: the IC50 was determined as 2.56 nM.

As to {C18 diacid}-EASELSTAALGRLSAELHELATLPRTETGPESP-OH [[N-terminal(C18 diacid), C-terminal(-)]mimylin], the IC50 is 298 nM.

Turning to ASEVSTAVLGRLSAELHELATLPRTETGSGSP-NH2 [[des1, 5V, 9V, 30S, 31G]mimylin], the IC50 was 0.982 nM.

In the case of {C20 diacid-γGlu}-ASGLSTATLGRLSQELHELQTYPRTETGSGTY-NH2 [[N-terminal(C20 diacid-gGlu), des1, 4G, 9T, 15Q, 21Q, 23Y, 30S, 31G, 32T, 33Y]mimylin], the 50% inhibitory concentration (IC50) worked out at 0.079 nM.

As to ASELSTAALGHLSAELHELATLPRTETGSGSP-NH2 [[des1, 12H, 30S, 31G]mimylin], the half-inhibitory concentration (IC50) came to 5.1 nM.

For the molecule ASELTTAVLGRLEAELHELTTLPRTETGTGTP-NH2 [[des1, 6T, 9V, 14E, 21T, 30T, 31G, 32T]mimylin], the half-inhibitory concentration (IC50) was found to be 71.4 nM.

Consider EASELSTAALGRLSAELHELATLPRTETGPESP-OH [[C-terminal(-)]mimylin], for which the 50% inhibitory concentration (IC50) was determined as 294 nM.

ASELTTAVLGRLSAELHELATLPRTETGTGTP-NH2 [[des1, 6T, 9V, 30T, 31G, 32T]mimylin]: the half-maximal inhibitory concentration (IC50) stood at 20.2 nM.

On to EASELSTAALGRLSAELHELATLPRTETGSGSP-NH2, for which the 50% inhibitory concentration (IC50) amounted to 0.469 nM.

Consider B4, for which the IC50 stood at 11.8 nM.

In the next test the target is T2, human calcitonin receptor. As to the kind of experiment: whole-cell competition vs 125I-human calcitonin (Assay VIIa). Here is the method: The binding assay was performed using a BHK tk'ts 13 cell line was stably transfected with the human calcitonin receptor, and a CRE-responsive luciferase reporter gene.
The day before the assay the cells were Seeded into Poly-D-Lysin coated 384W Opaque White, BD BioCoat plates (10000 cells/well) and Incubated overnight at 37° C., 5% CO2, 95% humidity. […] The morning after, the plates were washed three times in HBSS (4° C.), and lyzed in Lysis buffer (0.1 M NaOH), 1% SDS. Scintillation cocktail (MicroScint40®) was added and the plates were shaken at 500 rpm for a short period. The plate was incubated at room temperature in the dark for 1 hour and Read on a TopCounter™ (Packard). The IC₅₀ was calculated using (one site binding competition analysis) GraphPad Prism5 as a measure of receptor affinity.
With EASELSTAALGRLSAELHELATLPRTETGPESP-NH2 (also called Ex. #1) [mimylin], the IC50 came out at 0.431 nM.

Consider B5, for which the 50% inhibitory concentration (IC50) came to 0.481 nM.

For B6, the IC50 stood at 0.351 nM.
